This assay deals with T1, CXCR4-VN (human, UniProt P61073 1-352).
T1 construct: whole, on cells; Adenovirus-expressed in U-2 OS cells; also called CXCR4 fused with N-terminal fragment of Venus; not shown: VNm10, N-terminal fragment of Venus (VN154 variant with L46F and L64F)
Briefly: BiFC, U-2 OS cells; score=(positive cells/total cells)x100. Here is the method:
Images of about 200 cells from each well were analyzed with Multi-target analysis software in IN Cell Developer ToolBox (GE Healthcare, Waukesha, Wis.). Cell boundary was marked based on Hoechst signal, and fluorescence intensity per cell was measured. Cells with fluorescence intensities higher than background level were considered as BiFC positive cells. […] Positive cells were determined, and positive cell count ratio (“BiFC score”) was calculated as (positive cells/total cells)×100 (see Table 4 below).

B1: ADRA1A-VC (receptor, human, UniProt P35348 1-466, looked up)
chain: MVFLSGNASDSSNCTQPPAPVNISKAILLGVILGGLILFGVLGNILVILSVACHRHLHSVTHYYIVNLAVADLLLTSTVLPFSAIFEVLGYWAFGRVFCNIWAAVDVLCCTASIMGLCIISIDRYIGVSYPLRYPTIVTQRRGLMALLCVWALSLVISIGPLFGWRQPAPEDETICQINEEPGYVLFSALGSFYLPLAIILVMYCRVYVVAKRESRGLKSGLKTDKSDSEQVTLRIHRKNAPAGGSGMASAKTKTHFSVRLLKFSREKKAAKTLGIVVGCFVLCWLPFFLVMPIGSFFPDFKPSETVFKIVFWLGYLNSCINPIIYPCSSQEFKKAFQNVLRIQCLCRKQSSKHALGYTLHPPSQAVEGQHKDMVRIPVGSRETFYRISKTDGVCEWKFFSSMPRGSARITVSKDQSSCTTARVRSKSFLQVCCCVGPSTPSLDKNHQVPTIKVHTISLSENGEEV
notes: whole, on cells; Adenovirus-expressed in U-2 OS cells; not shown: VC155, C-terminal fragment of Venus
Regarding B1, the BiFC score stood at 7.85.

The record behind these values is patent US20190183976A1 (GPCR THERAPEUTICS, published 2019).
